{
  "source": "patent US20230192896A1",
  "about": "(published 2023)",
  "data": [
    {"target": "T1, FX zymogen (UniProt P00742 41-179; P00742 183-488)", "T1 chain 1": "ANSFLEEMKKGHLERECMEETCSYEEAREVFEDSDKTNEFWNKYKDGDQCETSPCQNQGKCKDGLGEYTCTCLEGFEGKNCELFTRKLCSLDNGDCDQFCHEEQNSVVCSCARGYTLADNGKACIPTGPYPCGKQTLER", "T1 chain 2": "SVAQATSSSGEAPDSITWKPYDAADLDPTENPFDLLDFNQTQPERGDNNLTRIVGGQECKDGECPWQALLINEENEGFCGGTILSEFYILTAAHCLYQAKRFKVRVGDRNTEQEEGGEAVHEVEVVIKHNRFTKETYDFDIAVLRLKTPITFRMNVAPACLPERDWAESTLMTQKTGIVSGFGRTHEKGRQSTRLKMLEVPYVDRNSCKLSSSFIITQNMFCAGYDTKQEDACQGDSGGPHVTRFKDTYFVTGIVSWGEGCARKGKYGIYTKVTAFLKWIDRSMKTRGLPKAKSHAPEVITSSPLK", "test": "BLI", "units": {"Kd": "nM"}, "values": [
      {"binder": "BIIB-12-1324 (antibody, V domains shown) VH: QVQLVQSGAEVKKPGASVKVSCKASGYTFTSYYMVWVRQAPGQGLEWMGIINPSGGSTSYAQKFQGRVTMTRDTSTSTVYMELSSLRSEDTAVYYCARLPRYSKRGLDVWGQGTMVTVSS VL: EIVMTQSPATLSLSPGERATLSCRASQSVSSYLAWYQQKPGQAPRLLIYDSSNRATGIPARFSGSGSGTDFTLTISSLEPEDFAVYYCQQLVSWPTFGGGTKVEIK", "Kd": 67.7},
      {"binder": "BIIB-12-1325 (antibody, V domains shown) VH: QVQLVQSGAEVKKPGASVKVSCKASGYTFTSYYMVWVRQAPGQGLEWMGIINPSGGSTSYAQKFQGRVTMTRDTSTSTVYMELSSLRSEDTAVYYCARGGRYMLDPWGQGTLVTVSS VL: DIQMTQSPSTLSASVGDRVTITCRASQSISSWLAWYQQKPGKAPKLLIYKASSLESGVPSRFSGSGSGTEFTLTISSLQPDDFATYYCQQSNRYPRTFGGGTKVEIK", "Kd": 17.8},
      {"binder": "BIIB-12-917 (antibody, V domains shown) VH: EVQLVQSGAEVKKPGESLKISCKGSGYSFTTYWIGWVRQMPGKGLEWMGIIYPGDSDTRYSPSFQGQVTISADKSISTAYLQWSSLKASDTAMYYCARGRFRPRGRFDYWGQGTLVTVSS VL: EIVMTQSPATLSVSPGERATLSCRASQSVSSNLAWYQQKPGQAPRLLIYGASTRATGIPARFSGSGSGTEFTLTISSLQSEDFAVYYCQQLFNHPPTFGGGTKVEIK", "Kd": 31.5},
      {"binder": "BIIB-12-1319 (antibody, V domains shown) VH: QVQLVESGGGVVQPGRSLRLSCAASGFTFSSYGMHWVRQAPGKGLEWVAVISYDGSNKYYADSVKGRFTISRDNSKNTLYLQMNSLRAEDTAVYYCARTGYHRSVYYWGQGTLVTVSS VL: EIVMTQSPATLSVSPGERATLSCRASQSVSSNLAWYQQKPGQAPRLLIYGASTRATGIPARFSGSGSGTEFTLTISSLQSEDFAVYYCQQASNFPPTFGGGTKVEI", "Kd": 31},
      {"binder": "BIIB-12-909 (antibody, V domains shown) VH: QVQLVESGGGVVQPGRSLRLSCAASGFTFSSYGMHWVRQAPGKGLEWVAVISYDGSNKYYADSVKGRFTISRDNSKNTLYLQMNSLRAEDTAVYYCAKGKHRRRSFDIWGQGTMVTVSS VL: not shown", "Kd": 69.7},
      {"binder": "BIIB-12-899 (antibody, V domains shown) VH: QVQLVQSGAEVKKPGASVKVSCKASGYTFTSYYMHWVRQAPGQGLEWMGIINPSGGSTSYAQKFQGRVTMTRDTSTSTVYMELSSLRSEDTAVYYCARGPRTSSPLYFDLWGRGTLVTVSS VL: not shown", "Kd": 34.2},
      {"binder": "BIIB-12-1315 (antibody, V domains shown) VH: QVQLVQSGAEVKKPGASVKVSCKASGYTFTSYYMVWVRQAPGQGLEWMGIINPSGGSTSYAQKFQGRVTMTRDTSTSTVYMELSSLRSEDTAVYYCARGRPSSKRVTYFDYWGQGTLVTVSS VL: EIVMTQSPATLSVSPGERATLSCRASQSVSSNLAWYQQKPGQAPRLLIYGASTRATGIPARFSGSGSGTEFTLTISSLQSEDFAVYYCQQVFNWPPWTFGGGTKVEIK", "Kd": 53.2},
      {"binder": "BIIB-12-913 (antibody, V domains shown) VH: QVQLVQSGAEVKKPGASVKVSCKASGYTFTSYGISWVRQAPGQGLEWMGWISAYNGNTNYAQKLQGRVTMTTDTSTSTAYMELRSLRSDDTAVYYCARGGVSRFWGQGTLVTVSS VL: EIVMTQSPATLSVSPGERATLSCRASQSVSSNLAWYQQKPGQAPRLLIYGASTRATGIPARFSGSGSGTEFTLTISSLQSEDFAVYYCQQYAPYPPLTFGGGTKVEIK", "Kd": 78.5},
      {"binder": "BIIB-12-914 (antibody, V domains shown) VH: QVQLVQSGAEVKKPGASVKVSCKASGYTFTSYYMHWVRQAPGQGLEWMGIINPSGGSTSYAQKFQGRVTMTRDTSTSTVYMELSSLRSEDTAVYYCARAPRYRGTMDVWGQGTTVTVSS VL: not shown", "Kd": 48.1},
      {"binder": "BIIB-12-1292 (antibody, V domains shown) VH: QVQLVQSGAEVKKPGASVKVSCKASGYTFTSYYIHWVRQAPGQGLEWMGIINPSGGSTSYAQKFQGRVTMTRDTSTSTVYMELSSLRSEDTAVYYCARDPGRRQSSGFDYWGQGTLVTVSS VL: EIVMTQSPATLSLSPGERATLSCRASQSVSSYLAWYQQKPGQAPRLLIYDSSNRATGIPARFSGSGSGTDFTLTISSLEPEDFAVYYCQQRLNFPFTFGGGTKVEIK", "Kd": 65.5},
      {"binder": "BIIB-12-1297 (antibody, V domains shown) VH: QVQLVESGGGVVQPGRSLRLSCAASGFTFSSYGMHWVRQAPGKGLEWVAVISYDGSNKYYADSVKGRFTISRDNSKNTLYLQMNSLRAEDTAVYYCARSGGQTHRRSMDVWGQGTTVTVSS VL: EIVLTQSPATLSLSPGERATLSCRASQSVSRYLAWYQQKPGQAPRLLIYDASNRATGIPARFSGSGSGTDFTLTISSLEPEDFAVYYCQQGNNWPPTFGGGTKVEIK", "Kd": 26.8},
      {"binder": "BIIB-12-892 (antibody, V domains shown) VH: QVQLVQSGAEVKKPGASVKVSCKASGYTFTSYYMHWVRQAPGQGLEWMGIINPSGGSTSYAQKFQGRVTMTRDTSTSTVYMELSSLRSEDTAVYYCARGLGRRTPTAFDIWGQGTMVTVSS VL: EIVLTQSPATLSLSPGERATLSCRASQSVSSYLAWYQQKPGQAPRLLIYDASNRATGIPARFSGSGSGTDFTLTISSLEPEDFAVYYCQQRLNLPLTFGGGTKVEIK", "Kd": 33.2},
      {"binder": "BIIB-12-1310 (antibody, V domains shown) VH: EVQLVESGGGLVKPGGSLRLSCAASGFTFSSYSMNWVRQAPGKGLEWVSSISSSSSYIYYADSVKGRFTISRDNAKNSLYLQMNSLRAEDTAVYYCARLGGYGSSQRYFDLWGRGTLVTVSS VL: EIVLTQSPATLSLSPGERATLSCRASQSVSRYLAWYQQKPGQAPRLLIYDASNRATGIPARFSGSGSGTDFTLTISSLEPEDFAVYYCEQASNWPPTFGGGTKVEIK", "Kd": 46.1},
      {"binder": "BIIB-12-891 (antibody, V domains shown) VH: QVQLVQSGAEVKKPGASVKVSCKASGYTFTSYYIHWVRQAPGQGLEWMGIINPSGGSTSYAQKFQGRVTMTRDTSTSTVYMELSSLRSEDTAVYYCARASIYRGLGAFDIWGQGTMVTVSS VL: not shown", "Kd": 65.2},
      {"binder": "BIIB-12-1318 (antibody, V domains shown) VH: QVQLVESGGGVVQPGRSLRLSCAASGFTFSSYGMHWVRQAPGKGLEWVAVISYDGSNKYYADSVKGRFTISRDNSKNTLYLQMNSLRAEDTAVYYCARKGDYRSGSYSGRAFGIWGQGTMVTVSS VL: EIVLTQSPATLSLSPGERATLSCRASQSVSSYLAWYQQKPGQAPRLLIYDASNRATGIPARFSGSGSGTDFTLTISSLEPEDFAVYYCQQLNNWPPTFGGGTKVEIK", "Kd": 56.1},
      {"binder": "BIIB-12-921 (antibody, V domains shown) VH: QVQLVESGGGVVQPGRSLRLSCAASGFTFSSYGMHWVRQAPGKGLEWVAVISYDGSNKYYADSVKGRFTISRDNSKNTLYLQMNSLRAEDTAVYYCAKVGDRGTRAFDPWGQGTLVTVSS VL: DIQMTQSPSSVSASVGDRVTITCRASQGISRWLAWYQQKPGKAPKLLIYAASSLQSGVPSRFSGSGSGTDFTLTISSLQPEDFATYYCQQGNVFPLTFGGGTKVEIK", "Kd": 23.1},
      {"binder": "BIIB-12-1317 (antibody, V domains shown) VH: QVQLVESGGGVVQPGRSLRLSCAASGFTFSSYGMHWVRQAPGKGLEWVAVISYDGSNKYYADSVKGRFTISRDNSKNTLYLQMNSLRAEDTAVYYCARGVGGHDTRWGQGTLVTVSS VL: DIQMTQSPSSVSASVGDRVTITCRASQGISSWLAWYQQKPGKAPKLLIYAASSLQSGVPSRFSGSGSGTDFTLTISSLQPEDFATYYCQQRHSLPPTFGGGTKVEIK", "Kd": 27.1},
      {"binder": "BIIB-12-935 (antibody, V domains shown) VH: QVQLVESGGGVVQPGRSLRLSCAASGFTFSSYGMHWVRQAPGKGLEWVAVISYDGSNKYYADSVKGRFTISRDNSKNTLYLQMNSLRAEDTAVYYCARELEYGHYGMDVWGQGTTVTVSS VL: not shown", "Kd": 38.8}
    ]}
  ]
}
